From patent US20110300138A1 (published 2011)

Key:
[1] = molecular target: human TSH receptor (full length) coated on ELISA plate wells (human) (UniProt P16473); test: TSH-biotin binding inhibition ELISA, TSHR coated wells; 1 µg/mL in assay buffer; negative control MAb
[2] = molecular target: human TSH receptor (full length) coated on ELISA plate wells (human) (UniProt P16473); test: TSH-biotin binding inhibition ELISA, TSHR coated wells; 10 µg/mL in assay buffer + 100 µg/mL 5B3 IgG; negative control MAb
[3] = molecular target: TSH receptor (full length human TSHR) (human) (UniProt P16473); test: competition ELISA: inhibition of M22 Fab-peroxidase (competitor) binding to TSHR coated wells; negative control at 0.1 µg/mL diluted in assay buffer
[4] = molecular target: TSHR (thyroid stimulating hormone receptor), full length human (human) (UniProt P16473); test: negative control; competitor ^125I-K1-70 IgG, TSHR coated tubes; 10 µg/mL in assay buffer
[5] = molecular target: human thyroid stimulating hormone receptor (TSHR), full length (human) (UniProt P16473); test: 125I-K1-70 Fab (competitor) binding to TSHR coated tubes; negative control MAb 0.1 µg/mL in HBD serum
[6] = molecular target: human TSH receptor (full length) coated on ELISA plate wells (human) (UniProt P16473); test: TSH-biotin binding inhibition ELISA, TSHR coated wells; 1 µg/mL in assay buffer + 100 µg/mL 5B3 IgG; negative control MAb
[7] = molecular target: TSH receptor (TSHR), full length human, coated on tubes (human) (UniProt P16473); test: inhibition of 125I-K1-18 IgG binding to TSHR coated tubes; competitor 125I-K1-18 IgG; negative control sample at 100 µg/mL in HBD serum
[8] = molecular target: wild type TSHR (human TSH receptor) expressed in CHO cells (human) (UniProt P16473); test: cell-based or functional assay
[9] = molecular target: TSHR with Thr257 mutated to Ala, expressed in CHO cells (human) (UniProt P16473); test: cell-based or functional assay
[10] = molecular target: TSH receptor (TSHR) coated on tubes (human) (UniProt P16473); test: inhibition of 125I-K1-70 IgG binding to TSHR coated tubes; negative control 0.01 µg/mL in HBD serum pool
[11] = molecular target: human thyroid stimulating hormone receptor (TSHR), full length (human) (UniProt P16473); test: 125I-K1-70 Fab (competitor) binding to TSHR coated tubes; negative control MAb 0.01 µg/mL in HBD serum
[12] = molecular target: TSH receptor (TSHR) coated on tubes (human) (UniProt P16473); test: inhibition of 125I-K1-70 IgG binding to TSHR coated tubes; negative control 0.1 µg/mL in HBD serum pool
[13] = molecular target: TSHR (full length) coated on tubes (human) (UniProt P16473); test: inhibition of 125I-K1-18 Fab (competitor) binding to TSHR coated tubes; negative control 1 µg/mL in assay buffer
[14] = molecular target: TSH receptor (TSHR), full length human, coated on tubes (human) (UniProt P16473); test: inhibition of 125I-K1-18 IgG binding to TSHR coated tubes; competitor 125I-K1-18 IgG; negative control sample at 10 µg/mL in HBD serum; mean of duplicate
[15] = molecular target: TSH receptor (TSHR) coated on tubes (human) (UniProt P16473); test: inhibition of 125I-K1-70 IgG binding to TSHR coated tubes; negative control 100 µg/mL in assay buffer
[16] = molecular target: TSHR (full length) coated on tubes (human) (UniProt P16473); test: inhibition of 125I-K1-18 Fab (competitor) binding to TSHR coated tubes; test sample 100 µg/mL in HBD serum
[17] = molecular target: TSHR (full length) coated on tubes (human) (UniProt P16473); test: inhibition of 125I-K1-18 Fab (competitor) binding to TSHR coated tubes; test sample 0.01 µg/mL in HBD serum
[18] = molecular target: TSH receptor (TSHR), full length human, coated on tubes (human) (UniProt P16473); test: inhibition of 125I-K1-18 IgG binding to TSHR coated tubes; competitor 125I-K1-18 IgG; sample at 10 µg/mL in assay buffer
[19] = molecular target: thyroid stimulating hormone receptor (TSHR), full length human TSHR (human) (UniProt P16473); test: TSH-biotin competition ELISA, TSHR coated wells; 0.1 µg/mL in assay buffer
[20] = molecular target: TSH receptor (full length human TSHR) (human) (UniProt P16473); test: competition ELISA: inhibition of M22 Fab-peroxidase (competitor) binding to TSHR coated wells; test sample at 10 µg/mL diluted in HBD serum pool
[21] = molecular target: wild type TSHR expressed in CHO cells (human) (UniProt P16473); test: cell-based or functional assay
[22] = molecular target: TSHR with Phe130 mutated to Ala, expressed in CHO cells (human) (UniProt P16473); test: cell-based or functional assay
[23] = molecular target: human TSH receptor (full length) coated on ELISA plate wells (human) (UniProt P16473); test: TSH-biotin binding inhibition ELISA, TSHR coated wells; 0.1 µg/mL in assay buffer
[24] = molecular target: human thyroid stimulating hormone receptor (TSHR), full length (human) (UniProt P16473); test: 125I-K1-18 Fab competition, TSHR coated tubes; 0.01 µg/mL in assay buffer
[25] = molecular target: thyroid stimulating hormone receptor (full length human TSHR) (human) (UniProt P16473); test: ELISA: inhibition of M22 Fab-peroxidase (competitor) binding to TSHR coated wells; 0.01 µg/mL, diluted in assay buffer

Question: What does the source list for 5B3 IgG (antibody)?
Answer: % inhibition of TSH-biotin binding [1]: -1%; % inhibition of TSH-biotin binding [2]: -4.8%; Inhibition of binding (%) [3]: 1.4%; Inhibition of binding (%) [4]: 2.3%; Inhibition of binding (%) [5]: -8.7%; % inhibition of TSH-biotin binding [6]: -4.8%; Inhibition of binding (%) [7]: 29.4%; Cyclic AMP produced; 5B3 10 µg/mL + TSH 3 ng/mL [8]: 85.9 pmol/mL; Cyclic AMP produced; 5B3 100 µg/mL + TSH 3 ng/mL [8]: 83.7 pmol/mL; % inhibition of TSH stimulation; 5B3 10 µg/mL [9]: 0%; % inhibition of TSH stimulation; 5B3 100 µg/mL [9]: 7%; Cyclic AMP produced; 5B3 10 µg/mL + TSH 3 ng/mL [9]: 94.2 pmol/mL; Cyclic AMP produced; 5B3 100 µg/mL + TSH 3 ng/mL [9]: 86.8 pmol/mL; Mutated/wild type (%) of cyclic AMP produced; 5B3 10 µg/mL + TSH 3 ng/mL [9]: 110%; Mutated/wild type (%) of cyclic AMP produced; 5B3 100 µg/mL + TSH 3 ng/mL [9]: 104%; Inhibition of binding (%) [10]: 3.2%; Inhibition of binding (%) [11]: -5.3%; Inhibition of binding (%) [12]: 9.4%; Inhibition of binding (%) [13]: -0.9%; Inhibition of binding (%) [14]: -0.1%; Inhibition of binding (%) [15]: 15.2%

Question: Which results are given for 9D33 IgG (antibody)?
Answer: Inhibition of binding (%) [16]: 77.3%; Inhibition of binding (%) [17]: 2.3%; Inhibition of binding (%) [18]: 63.2%; Inhibition of binding (%) [19]: 59.7%; Inhibition of binding (%) [20]: 66.7%

Question: With TSH (ligand) as the molecule, how does the % inhibition of TSH stimulation; TSH (2) [21] read?
Answer: 0%

Question: What about the Cyclic AMP produced; TSH 3 ng/mL [21] of the same molecule?
Answer: 79.4 pmol/mL

Question: What about the Cyclic AMP produced; TSH (2) [21] of the same molecule?
Answer: 89.1 pmol/mL

Question: And the % inhibition of TSH stimulation; TSH (2) [22]?
Answer: 0%

Question: And the Cyclic AMP produced; TSH 3 ng/mL [22]?
Answer: 121 pmol/mL

Question: And the Cyclic AMP produced; TSH (2) [22]?
Answer: 95.4 pmol/mL

Question: And the Mutated/wild type (%) of cyclic AMP produced; TSH 3 ng/mL [22]?
Answer: 152%

Question: What about the Mutated/wild type (%) of cyclic AMP produced; TSH (2) [22] of the same molecule?
Answer: 107%

B1: 5C9 IgG (antibody, from another filing, V domains shown)
VH: EVQLVESGGGLIQPGGSLRLSCAASGFTVSSNYMSWVRQAPGKGLEWVSVTYSGGSTSYADSVKGRFTISRDNSKNTLYLQMNSLRAEDTAVYYCARGGRYCSSISCYARSGCDYWGQGTLVTVSS
VL: AIQMTQSPSSLSASVGDRVTITCRASQSISNYLNWYQQKPGKAPKLLIYAASSLQSGVPSRFSGSGSGTDFTLTISSLQPEDFATYYCQQSYSSPSTTFGQGTKLEIK
Question: With B1 as the molecule, how does the % inhibition of TSH-biotin binding [23] read?
Answer: 34.9%

Question: And the Inhibition of binding (%) [24]?
Answer: 3%

Question: And the Inhibition of binding (%) [25]?
Answer: 0.6%
